From patent US20230002757A1 (ZHEJIANG NANOMAB TECHNOLOGY CENTER, published 2023)
One block for each binder: values may come before it.

Key:
PD-1 protein [1] = target: T1, PD-1 protein (human, UniProt Q15116 25-167, limits assumed); assay: ELISA, PD-1 coated
T1 construct: also called human PD-1
Procedure: 2 μg/ml of PD-1 protein is coated on 96-well plates overnight for ELISA binding assay. Recombinant VHH-FC proteins are added to the wells and allowed to stand for a period of time, then 1 μg/ml of HRP-conjugated anti-FC antibody is added as detection antibody and the assay reagents are added. The absorbance is read at 450 nm. Binding of nivolumab serves as a positive control and plates coated with BSA are used as the negative control group.

PD-1 protein [2] = target: T1, PD-1 protein; assay: blocking ELISA, PD-1 coated, competitor biotin PD-L1
Procedure: Each well of 96-well microtiter plates is coated with 2 μg/ml of PD-1 protein in PBS and blocked with 1% BSA. […]
The intensity of the developed color is measured at 450 nm. Wells with no added PD-1 and no added VHH-FC are negative and positive controls, respectively.

T1 sequence (Q15116 25-167 limits assumed): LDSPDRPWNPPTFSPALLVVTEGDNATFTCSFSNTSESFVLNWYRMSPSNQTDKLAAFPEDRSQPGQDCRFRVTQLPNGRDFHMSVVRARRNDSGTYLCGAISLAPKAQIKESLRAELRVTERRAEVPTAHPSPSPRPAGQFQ

- OD450 at 0.002 µg/mL (PD-1 protein [1]): 0.03 OD450
- OD450 at 0.02 µg/mL (PD-1 protein [1]): 0.05 OD450
- OD450 at 0.2 µg/mL (PD-1 protein [1]): 0.24 OD450
- OD450 at 2 µg/mL (PD-1 protein [1]): 1.07 OD450
- OD450 of PD-L1 bound, antibody at 0.15 µg/mL (PD-1 protein [2]): 3.32 OD450
- OD450 of PD-L1 bound, antibody at 0.61 µg/mL (PD-1 protein [2]): 3.35 OD450
- OD450 of PD-L1 bound, antibody at 2.42 µg/mL (PD-1 protein [2]): 3.31 OD450
- OD450 of PD-L1 bound, antibody at 9.75 µg/mL (PD-1 protein [2]): 3.26 OD450
B1: 504#SS7 (Fc fusion)
VHH: QVQLVESGGGLVQAGGSLTLSCAASGRTFNSYAMGWFRQAPGKEREFVAAISQNGGSQGYAEAVKDRFTISRDNTNKVVALQMNSLKPEDTAAYYCAADGDASDRSYAPPRDYKYEYWGQGTQVTVSS
notes: VHH-FC construct from HEK293 cells; not shown: The (G4S)3 linker leading to it is left out with it

- OD450 at 0.002 µg/mL (PD-1 protein [1]): 0.04 OD450
- OD450 at 0.02 µg/mL (PD-1 protein [1]): 0.04 OD450
- OD450 at 0.2 µg/mL (PD-1 protein [1]): 0.06 OD450
- OD450 at 2 µg/mL (PD-1 protein [1]): 0.35 OD450
- OD450 of PD-L1 bound, antibody at 0.15 µg/mL (PD-1 protein [2]): 3.35 OD450
- OD450 of PD-L1 bound, antibody at 0.61 µg/mL (PD-1 protein [2]): 3.36 OD450
- OD450 of PD-L1 bound, antibody at 2.42 µg/mL (PD-1 protein [2]): 3.39 OD450
- OD450 of PD-L1 bound, antibody at 9.75 µg/mL (PD-1 protein [2]): 3.31 OD450
B2: 504#SS29 (Fc fusion, not shown: a dimerising Fc or GST; small tags and cut ends)
VHH: QVQLVESGGGLVQAGGSLRLSCAASGRTFSGYTMGWFRRAPGKERELIANILWNSARRYYADSVKGRFTISRDNAMNTVDLQMNSLKPEDTAVYYCAVLVDSTYRFSNQGTQVTVSS
notes: VHH-FC construct from HEK293 cells

- OD450 at 0.002 µg/mL (PD-1 protein [1]): 0.03 OD450
- OD450 at 0.02 µg/mL (PD-1 protein [1]): 0.03 OD450
- OD450 at 0.2 µg/mL (PD-1 protein [1]): 0.03 OD450
- OD450 at 2 µg/mL (PD-1 protein [1]): 0.04 OD450
- OD450 of PD-L1 bound, antibody at 0.15 µg/mL (PD-1 protein [2]): 3.32 OD450
- OD450 of PD-L1 bound, antibody at 0.61 µg/mL (PD-1 protein [2]): 3.3 OD450
- OD450 of PD-L1 bound, antibody at 2.42 µg/mL (PD-1 protein [2]): 3.36 OD450
- OD450 of PD-L1 bound, antibody at 9.75 µg/mL (PD-1 protein [2]): 3.17 OD450
B3: 504#SS25 (Fc fusion, not shown: a dimerising Fc or GST; small tags and cut ends)
VHH: QVQLVETGGGLVQAGGSLRLSCAASGDTIFISSMAWYRQAPGKERELVASIDSDDIIYYAATVKGRFTISRDNDKPTMYLQMDTLQPEDTAVYYCRVESQDYYFDYDRDSWGQGTQVTVSS
notes: as for B2

- OD450 at 0.002 µg/mL (PD-1 protein [1]): 0.04 OD450
- OD450 at 0.02 µg/mL (PD-1 protein [1]): 0.04 OD450
- OD450 at 0.2 µg/mL (PD-1 protein [1]): 0.04 OD450
- OD450 at 2 µg/mL (PD-1 protein [1]): 0.05 OD450
- OD450 of PD-L1 bound, antibody at 0.15 µg/mL (PD-1 protein [2]): 3.53 OD450
- OD450 of PD-L1 bound, antibody at 0.61 µg/mL (PD-1 protein [2]): 3.69 OD450
- OD450 of PD-L1 bound, antibody at 2.42 µg/mL (PD-1 protein [2]): 3.57 OD450
- OD450 of PD-L1 bound, antibody at 9.75 µg/mL (PD-1 protein [2]): 3.68 OD450
B4: 504#SS15 (Fc fusion, not shown: a dimerising Fc or GST; small tags and cut ends)
VHH: QVQLVESGGGLVQPGGSLRLSCAASGFTFSNYAMTWYRQAPGKERELVAAISSAGYTTTYAGSVKGRFTISRDNAKNTVYLQMNSLNPEDTAVYYCNAGRLSYGGSYYPNDDYWGQGTQVTVSS
notes: as for B2

- OD450 at 0.002 µg/mL (PD-1 protein [1]): 0.04 OD450
- OD450 at 0.02 µg/mL (PD-1 protein [1]): 0.03 OD450
- OD450 at 0.2 µg/mL (PD-1 protein [1]): 0.03 OD450
- OD450 at 2 µg/mL (PD-1 protein [1]): 0.04 OD450
- OD450 of PD-L1 bound, antibody at 0.15 µg/mL (PD-1 protein [2]): 3.47 OD450
- OD450 of PD-L1 bound, antibody at 0.61 µg/mL (PD-1 protein [2]): 3.34 OD450
- OD450 of PD-L1 bound, antibody at 2.42 µg/mL (PD-1 protein [2]): 3.32 OD450
- OD450 of PD-L1 bound, antibody at 9.75 µg/mL (PD-1 protein [2]): 3.28 OD450
B5: 504#SS22 (Fc fusion, not shown: a dimerising Fc or GST; small tags and cut ends)
VHH: QVQLVETGGGLVQAGGSLRLSCAASGRTFSSYAMGWFRQAPGKERDFVAGISGSGGNTPYAESVKGRFTISRDNAKNTVALQMNSLKPEDTAVYYCAAKFTSSSFYYRSPREYSSWGQGTQVTVSS
notes: as for B2

- OD450 at 0.002 µg/mL (PD-1 protein [1]): 0.03 OD450
- OD450 at 0.02 µg/mL (PD-1 protein [1]): 0.03 OD450
- OD450 at 0.2 µg/mL (PD-1 protein [1]): 0.04 OD450
- OD450 at 2 µg/mL (PD-1 protein [1]): 0.07 OD450
- OD450 of PD-L1 bound, antibody at 0.15 µg/mL (PD-1 protein [2]): 3.22 OD450
- OD450 of PD-L1 bound, antibody at 0.61 µg/mL (PD-1 protein [2]): 3.2 OD450
- OD450 of PD-L1 bound, antibody at 2.42 µg/mL (PD-1 protein [2]): 3.27 OD450
- OD450 of PD-L1 bound, antibody at 9.75 µg/mL (PD-1 protein [2]): 3.28 OD450
B6: 504#SS12 (Fc fusion, not shown: a dimerising Fc or GST; small tags and cut ends)
VHH: EVQVVESGGGLVQPGGSLRLSCAVSGRGFSEHAMGWYRQSPGKQREFVAGVTSYGGTNYADSVKGRFTISRDNVGNTVFLQMNSLKPEDTAVYYCNYKRGHYPDGVSTYEYWGQGTQVTVSS
notes: as for B2

- OD450 at 0.002 µg/mL (PD-1 protein [1]): 0.03 OD450
- OD450 at 0.02 µg/mL (PD-1 protein [1]): 0.03 OD450
- OD450 at 0.2 µg/mL (PD-1 protein [1]): 0.03 OD450
- OD450 at 2 µg/mL (PD-1 protein [1]): 0.04 OD450
- OD450 of PD-L1 bound, antibody at 0.15 µg/mL (PD-1 protein [2]): 3.27 OD450
- OD450 of PD-L1 bound, antibody at 0.61 µg/mL (PD-1 protein [2]): 3.24 OD450
- OD450 of PD-L1 bound, antibody at 2.42 µg/mL (PD-1 protein [2]): 3.28 OD450
- OD450 of PD-L1 bound, antibody at 9.75 µg/mL (PD-1 protein [2]): 3.32 OD450
B7: 504#SS10 (Fc fusion, not shown: a dimerising Fc or GST; small tags and cut ends)
VHH: EVQLVESGGGLVQPGASLRLSCTASGSIFSIYAMGWYRQAPGKQRELVAYITSGGSTTYADSVKGRFTISRDNAKNTVYLQMNSLKPEDTAVYYCNRGNYYRDYKPEFWGQGTQVTVSS
notes: as for B2

- OD450 at 0.002 µg/mL (PD-1 protein [1]): 0.03 OD450
- OD450 at 0.02 µg/mL (PD-1 protein [1]): 0.04 OD450
- OD450 at 0.2 µg/mL (PD-1 protein [1]): 0.03 OD450
- OD450 at 2 µg/mL (PD-1 protein [1]): 0.05 OD450
- OD450 of PD-L1 bound, antibody at 0.15 µg/mL (PD-1 protein [2]): 3.48 OD450
- OD450 of PD-L1 bound, antibody at 0.61 µg/mL (PD-1 protein [2]): 3.35 OD450
- OD450 of PD-L1 bound, antibody at 2.42 µg/mL (PD-1 protein [2]): 3.22 OD450
- OD450 of PD-L1 bound, antibody at 9.75 µg/mL (PD-1 protein [2]): 3.26 OD450
B8: 504#SS16 (Fc fusion, not shown: a dimerising Fc or GST; small tags and cut ends)
VHH: EVQVVESGGGLVQAGGSLRLSCAVSGRTFSSYVMGWFRQAPGKERDFVAAISRSGGRTWYADSVKGRFTISFDNAKNTVYLQMNSLKPEDTASYYCNTDYTFAKLTAPDRRNDDWGQGTQVTVSS
notes: as for B2

- OD450 at 0.002 µg/mL (PD-1 protein [1]): 0.03 OD450
- OD450 at 0.02 µg/mL (PD-1 protein [1]): 0.03 OD450
- OD450 at 0.2 µg/mL (PD-1 protein [1]): 0.03 OD450
- OD450 at 2 µg/mL (PD-1 protein [1]): 0.04 OD450
- OD450 of PD-L1 bound, antibody at 0.15 µg/mL (PD-1 protein [2]): 3.19 OD450
- OD450 of PD-L1 bound, antibody at 0.61 µg/mL (PD-1 protein [2]): 3.15 OD450
- OD450 of PD-L1 bound, antibody at 2.42 µg/mL (PD-1 protein [2]): 3.26 OD450
- OD450 of PD-L1 bound, antibody at 9.75 µg/mL (PD-1 protein [2]): 3.17 OD450
B9: 504#SS1 (Fc fusion)
VHH: QVQLVESGGGLVQAGGSLRLSCAASGLTFSDFAMGWFRQAPGKEREFVAAISWSGGQTYNVESAKGRFTISRDNAKNTVYLQMNKLKPDDTAVYYCAASTMVVTTVAADYKYWGQGTQVTVSS
notes: as for B1
